Test results: US20050037963

Key:
[1] = tested on: GST fusion protein containing CT-FIP (pGEX-CT-FIP)
[2] = tested on: HA-tagged full-length FIP200 (pKH3-FIP200, residues 1-1591)

Sequence of FAK immunoprecipitated from Chinese hamster ovary cells overexpressing FAK (Q05397 2-1052): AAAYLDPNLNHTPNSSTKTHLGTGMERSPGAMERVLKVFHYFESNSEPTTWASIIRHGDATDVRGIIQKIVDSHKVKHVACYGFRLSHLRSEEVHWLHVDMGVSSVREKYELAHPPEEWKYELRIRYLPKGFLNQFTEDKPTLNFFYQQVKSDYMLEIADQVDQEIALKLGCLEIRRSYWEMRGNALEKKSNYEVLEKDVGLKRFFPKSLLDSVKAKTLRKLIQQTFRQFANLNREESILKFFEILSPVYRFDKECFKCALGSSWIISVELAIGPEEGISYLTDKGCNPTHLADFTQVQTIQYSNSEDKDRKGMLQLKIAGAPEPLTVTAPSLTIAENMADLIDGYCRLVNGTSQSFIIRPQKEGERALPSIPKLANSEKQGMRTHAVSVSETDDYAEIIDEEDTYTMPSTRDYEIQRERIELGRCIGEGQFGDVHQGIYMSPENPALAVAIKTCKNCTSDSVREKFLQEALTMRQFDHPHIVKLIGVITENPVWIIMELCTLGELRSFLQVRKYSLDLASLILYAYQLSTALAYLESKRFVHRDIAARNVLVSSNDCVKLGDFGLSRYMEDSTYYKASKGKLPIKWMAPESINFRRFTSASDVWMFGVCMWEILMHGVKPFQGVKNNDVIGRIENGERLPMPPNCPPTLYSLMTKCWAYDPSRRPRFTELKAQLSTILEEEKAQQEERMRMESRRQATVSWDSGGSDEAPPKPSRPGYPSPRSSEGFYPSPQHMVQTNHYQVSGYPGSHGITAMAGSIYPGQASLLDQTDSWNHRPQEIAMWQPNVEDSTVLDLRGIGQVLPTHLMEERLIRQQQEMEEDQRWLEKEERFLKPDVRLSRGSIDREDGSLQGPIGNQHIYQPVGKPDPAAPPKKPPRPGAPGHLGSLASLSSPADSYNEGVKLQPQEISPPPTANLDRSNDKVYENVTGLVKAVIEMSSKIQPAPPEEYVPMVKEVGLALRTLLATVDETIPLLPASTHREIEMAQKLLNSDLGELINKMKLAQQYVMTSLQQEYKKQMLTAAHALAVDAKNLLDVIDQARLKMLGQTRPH
Sequence of FAK expressed from an expression vector encoding FAK (tag not stated) (Q05397 2-1052): as above

Substance	FAK kinase activity (in vitro kinase assay, E4Y1 as exogenous substrate) (GST alone [GST: P08515])	FAK kinase activity (in vitro kinase assay, E4Y1 as exogenous substrate) [1]	rescue of BrdU incorporation (NIH3T3) [2]
FAK immunoprecipitated from Chinese hamster ovary cells overexpressing FAK	GST alone did not have any effect	at lower concentrations (e.g., <5 pmol/reaction), GST fusion proteins containing NT-FIP or MD-FIP reduced FAK kinase activity, whereas CT-FIP did not	
FAK expressed from an expression vector encoding FAK (tag not stated)			it rescued the inhibition of BrdU incorporation by FIP200 to the control levels
